Measurements published in patent publication US20130066054A1 (UCB, published 2013).
Values joined by “and” are separate entries in the source; they are usually repeats but may differ in a detail not shown here. Equal entries are not always repeated.

T1: OX40 (UniProt P43489 29-214)
T1 construct: also called O × 40
T1 sequence (looked up): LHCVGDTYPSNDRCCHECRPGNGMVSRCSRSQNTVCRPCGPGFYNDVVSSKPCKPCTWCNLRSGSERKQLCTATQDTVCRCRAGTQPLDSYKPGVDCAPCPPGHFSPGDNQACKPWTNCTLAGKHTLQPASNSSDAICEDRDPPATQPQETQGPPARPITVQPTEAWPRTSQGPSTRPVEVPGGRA


Experiments:
human serum albumin = target: T2, human serum albumin (human, UniProt P02768 25-609); experiment: SPR (Biacore 3000), Fab-dsFv captured, antigen injected, 1:1 fit;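 further: capture antibody amine-coupled on chip, 3 min antigen association then 20 min dissociation, antigen titrated, reference flow-cell and buffer blanks subtracted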
T2 construct: also called HSA
Method: (§1) Covalent immobilisation of the capture antibody was achieved by standard amine coupling chemistry.
(§2) Each assay cycle consisted of firstly capturing the Fab-dsFv using a 1 min injection, before an association phase consisting of a 3 min injection of antigen, after which dissociation was monitored for 20 min. After each cycle, the capture surface was regenerated with 2×1 min injections of 40 mM HCl followed by 30 s of 5 mM NaOH. The flow rates used were 10 μl/min for capture, 30 μl/min for association and dissociation phases, and 10 μl/min for regeneration.
(§3) For kinetic assays, a titration of antigen was performed, a blank flow-cell was used for reference subtraction and buffer-blank injections were included to subtract instrument noise and drift.

OX40 = target: T1, OX40; experiment: as above
Method: as §1, §2, §3

| Kd (human serum albumin) [nM] | koff (human serum albumin) [s⁻¹] | kon (human serum albumin) [M⁻¹ s⁻¹] | Kd (OX40) | koff (OX40) [s⁻¹] | kon (OX40) [M⁻¹ s⁻¹] | Binder |
| --- | --- | --- | --- | --- | --- | --- |
| 1.72 | 0.00025 | 145000 | 0.231 nM and 0.23 nM | 0.000107 | 465000 | A26-645 Lys149Cys K (bispecific antibody, Surface cysteine mutant of A26-645 (Kabat numbering); also called K149C CK; mutation 10) heavy: EVQLVESGGGLVQPGGSLRLSCAASGFTFTNYGIHWIRQAPGKGLEWVASISPSGGLTYYRDSVKGRFTISRDDAKNSPYLQMNSLRAEDTAVYYCATGGEGIFDYWGQGTLVTVSSASTKGPSVFPLAPSSKSTSGGTAALGCLVKDYFPEPVTVSWNSGALTSGVHTFPAVLQSSGLYSLSSVVTVPSSSLGTQTYICNVNHKPSNTKVDKKVEPKSCSGGGGSGGGGSGGGGSEVQLLESGGGLVQPGGSLRLSCAVSGIDLSNYAINWVRQAPGKCLEWIGIIWASGTTFYATWAKGRFTISRDSTTVYLQMNSLRAEDTAVYYCARTVPGYSTAPYFDLWGQGTLVTVSS light: DIQMTQSPSSLSASVGDRVTITCRATQSIYNALAWYQQKPGKAPKLLIYNANTLHTGVPSRFSASGSGTDSTLTISSLQPEDFATYYCQQYYDYPLTFGGGTKVEIKRTVAAPSVFIFPPSDEQLKSGTASVVCLLNNFYPREAKVQWCVDNALQSGNSQESVTEQDSKDSTYSLSSTLTLSKADYEKHKVYACEVTHQGLSSPVTKSFNRGECSGGGGSGGGGSGGGGSDIVMTQSPSSVSASVGDRVTITCQSSPSVWSNFLSWYQQKPGKAPKLLIYEASKLTSGVPSRFKGSGSGTDFTLTISSLQPEDFATYYCGGGYSSISDTTFGCGTKVEIK |
| 1.87 | 0.000351 | 188000 | 0.27 nM | 0.000146 | 540000 | A26-645 Thr116Cys H (bispecific antibody, 645 Fv disulfide between Cys44 of SEQ ID NO 227 and Cys100 of SEQ ID NO 44 (Kabat); both cysteines are already in the letters, Surface cysteine mutant of A26-645 (Kabat numbering); also called T116C CH1; mutation 1) heavy: EVQLVESGGGLVQPGGSLRLSCAASGFTFTNYGIHWIRQAPGKGLEWVASISPSGGLTYYRDSVKGRFTISRDDAKNSPYLQMNSLRAEDTAVYYCATGGEGIFDYWGQGTLVTVSSASCKGPSVFPLAPSSKSTSGGTAALGCLVKDYFPEPVTVSWNSGALTSGVHTFPAVLQSSGLYSLSSVVTVPSSSLGTQTYICNVNHKPSNTKVDKKVEPKSCSGGGGSGGGGSGGGGSEVQLLESGGGLVQPGGSLRLSCAVSGIDLSNYAINWVRQAPGKCLEWIGIIWASGTTFYATWAKGRFTISRDSTTVYLQMNSLRAEDTAVYYCARTVPGYSTAPYFDLWGQGTLVTVSS light: DIQMTQSPSSLSASVGDRVTITCRATQSIYNALAWYQQKPGKAPKLLIYNANTLHTGVPSRFSASGSGTDSTLTISSLQPEDFATYYCQQYYDYPLTFGGGTKVEIKRTVAAPSVFIFPPSDEQLKSGTASVVCLLNNFYPREAKVQWKVDNALQSGNSQESVTEQDSKDSTYSLSSTLTLSKADYEKHKVYACEVTHQGLSSPVTKSFNRGECSGGGGSGGGGSGGGGSDIVMTQSPSSVSASVGDRVTITCQSSPSVWSNFLSWYQQKPGKAPKLLIYEASKLTSGVPSRFKGSGSGTDFTLTISSLQPEDFATYYCGGGYSSISDTTFGCGTKVEIK |
| 3.34 | 0.000722 | 216000 | 0.265 nM and 0.27 nM | 0.000146 | 550000 | A26-645 Ser163Cys H (bispecific antibody, 645 Fv disulfide between Cys44 of SEQ ID NO 227 and Cys100 of SEQ ID NO 44 (Kabat); both cysteines are already in the letters, Surface cysteine mutant of A26-645 (Kabat numbering); also called S163C CH1; mutation 2) heavy: EVQLVESGGGLVQPGGSLRLSCAASGFTFTNYGIHWIRQAPGKGLEWVASISPSGGLTYYRDSVKGRFTISRDDAKNSPYLQMNSLRAEDTAVYYCATGGEGIFDYWGQGTLVTVSSASTKGPSVFPLAPSSKSTSGGTAALGCLVKDYFPEPVTVSWNCGALTSGVHTFPAVLQSSGLYSLSSVVTVPSSSLGTQTYICNVNHKPSNTKVDKKVEPKSCSGGGGSGGGGSGGGGSEVQLLESGGGLVQPGGSLRLSCAVSGIDLSNYAINWVRQAPGKCLEWIGIIWASGTTFYATWAKGRFTISRDSTTVYLQMNSLRAEDTAVYYCARTVPGYSTAPYFDLWGQGTLVTVSS light: DIQMTQSPSSLSASVGDRVTITCRATQSIYNALAWYQQKPGKAPKLLIYNANTLHTGVPSRFSASGSGTDSTLTISSLQPEDFATYYCQQYYDYPLTFGGGTKVEIKRTVAAPSVFIFPPSDEQLKSGTASVVCLLNNFYPREAKVQWKVDNALQSGNSQESVTEQDSKDSTYSLSSTLTLSKADYEKHKVYACEVTHQGLSSPVTKSFNRGECSGGGGSGGGGSGGGGSDIVMTQSPSSVSASVGDRVTITCQSSPSVWSNFLSWYQQKPGKAPKLLIYEASKLTSGVPSRFKGSGSGTDFTLTISSLQPEDFATYYCGGGYSSISDTTFGCGTKVEIK |
| 1.95 | 0.000411 | 210000 | 0.247 nM and 0.25 nM | 0.000108 | 437000 | A26-645 Ser182Cys H (bispecific antibody, 645 Fv disulfide between Cys44 of SEQ ID NO 227 and Cys100 of SEQ ID NO 44 (Kabat); both cysteines are already in the letters, Surface cysteine mutant of A26-645; also called A26-645 Ser180Cys H; S182C CH1) heavy: EVQLVESGGGLVQPGGSLRLSCAASGFTFTNYGIHWIRQAPGKGLEWVASISPSGGLTYYRDSVKGRFTISRDDAKNSPYLQMNSLRAEDTAVYYCATGGEGIFDYWGQGTLVTVSSASTKGPSVFPLAPSSKSTSGGTAALGCLVKDYFPEPVTVSWNSGALTSGVHTFPAVLQSCGLYSLSSVVTVPSSSLGTQTYICNVNHKPSNTKVDKKVEPKSCSGGGGSGGGGSGGGGSEVQLLESGGGLVQPGGSLRLSCAVSGIDLSNYAINWVRQAPGKCLEWIGIIWASGTTFYATWAKGRFTISRDSTTVYLQMNSLRAEDTAVYYCARTVPGYSTAPYFDLWGQGTLVTVSS light: DIQMTQSPSSLSASVGDRVTITCRATQSIYNALAWYQQKPGKAPKLLIYNANTLHTGVPSRFSASGSGTDSTLTISSLQPEDFATYYCQQYYDYPLTFGGGTKVEIKRTVAAPSVFIFPPSDEQLKSGTASVVCLLNNFYPREAKVQWKVDNALQSGNSQESVTEQDSKDSTYSLSSTLTLSKADYEKHKVYACEVTHQGLSSPVTKSFNRGECSGGGGSGGGGSGGGGSDIVMTQSPSSVSASVGDRVTITCQSSPSVWSNFLSWYQQKPGKAPKLLIYEASKLTSGVPSRFKGSGSGTDFTLTISSLQPEDFATYYCGGGYSSISDTTFGCGTKVEIK |
| 2.75 | 0.000282 | 102000 | 0.248 nM and 0.25 nM | 0.000117 | 470000 | A26-645 Ser77Cys K (bispecific antibody, Surface cysteine mutant of A26-645 in the 645 Fv light domain (Kabat numbering); also called S77C 645 Fv light; mutation 14) heavy: EVQLVESGGGLVQPGGSLRLSCAASGFTFTNYGIHWIRQAPGKGLEWVASISPSGGLTYYRDSVKGRFTISRDDAKNSPYLQMNSLRAEDTAVYYCATGGEGIFDYWGQGTLVTVSSASTKGPSVFPLAPSSKSTSGGTAALGCLVKDYFPEPVTVSWNSGALTSGVHTFPAVLQSSGLYSLSSVVTVPSSSLGTQTYICNVNHKPSNTKVDKKVEPKSCSGGGGSGGGGSGGGGSEVQLLESGGGLVQPGGSLRLSCAVSGIDLSNYAINWVRQAPGKCLEWIGIIWASGTTFYATWAKGRFTISRDSTTVYLQMNSLRAEDTAVYYCARTVPGYSTAPYFDLWGQGTLVTVSS light: DIQMTQSPSSLSASVGDRVTITCRATQSIYNALAWYQQKPGKAPKLLIYNANTLHTGVPSRFSASGSGTDSTLTISSLQPEDFATYYCQQYYDYPLTFGGGTKVEIKRTVAAPSVFIFPPSDEQLKSGTASVVCLLNNFYPREAKVQWKVDNALQSGNSQESVTEQDSKDSTYSLSSTLTLSKADYEKHKVYACEVTHQGLSSPVTKSFNRGECSGGGGSGGGGSGGGGSDIVMTQSPSSVSASVGDRVTITCQSSPSVWSNFLSWYQQKPGKAPKLLIYEASKLTSGVPSRFKGSGSGTDFTLTISCLQPEDFATYYCGGGYSSISDTTFGCGTKVEIK |
| 1.09 | 0.000257 | 236000 | 0.247 nM and 0.25 nM | 0.000117 | 473000 | A26-645 Ser82bCys H (bispecific antibody, 645 Fv disulfide between Cys44 of SEQ ID NO 227 and Cys100 of SEQ ID NO 44 (Kabat); both cysteines are already in the letters, Surface cysteine mutant of A26-645 in the 645 Fv heavy domain (Kabat numbering); also called S82bC 645 Fv Heavy; mutation 6) heavy: EVQLVESGGGLVQPGGSLRLSCAASGFTFTNYGIHWIRQAPGKGLEWVASISPSGGLTYYRDSVKGRFTISRDDAKNSPYLQMNSLRAEDTAVYYCATGGEGIFDYWGQGTLVTVSSASTKGPSVFPLAPSSKSTSGGTAALGCLVKDYFPEPVTVSWNSGALTSGVHTFPAVLQSSGLYSLSSVVTVPSSSLGTQTYICNVNHKPSNTKVDKKVEPKSCSGGGGSGGGGSGGGGSEVQLLESGGGLVQPGGSLRLSCAVSGIDLSNYAINWVRQAPGKCLEWIGIIWASGTTFYATWAKGRFTISRDSTTVYLQMNCLRAEDTAVYYCARTVPGYSTAPYFDLWGQGTLVTVSS light: DIQMTQSPSSLSASVGDRVTITCRATQSIYNALAWYQQKPGKAPKLLIYNANTLHTGVPSRFSASGSGTDSTLTISSLQPEDFATYYCQQYYDYPLTFGGGTKVEIKRTVAAPSVFIFPPSDEQLKSGTASVVCLLNNFYPREAKVQWKVDNALQSGNSQESVTEQDSKDSTYSLSSTLTLSKADYEKHKVYACEVTHQGLSSPVTKSFNRGECSGGGGSGGGGSGGGGSDIVMTQSPSSVSASVGDRVTITCQSSPSVWSNFLSWYQQKPGKAPKLLIYEASKLTSGVPSRFKGSGSGTDFTLTISSLQPEDFATYYCGGGYSSISDTTFGCGTKVEIK |
| 2.06 | 0.000257 | 125000 | 0.194 nM and 0.19 nM | 9.24e-05 | 477000 | A26-645 Ser171Cys K (bispecific antibody, Surface cysteine mutant of A26-645 (Kabat numbering); also called S171C CK; mutation 11) heavy: EVQLVESGGGLVQPGGSLRLSCAASGFTFTNYGIHWIRQAPGKGLEWVASISPSGGLTYYRDSVKGRFTISRDDAKNSPYLQMNSLRAEDTAVYYCATGGEGIFDYWGQGTLVTVSSASTKGPSVFPLAPSSKSTSGGTAALGCLVKDYFPEPVTVSWNSGALTSGVHTFPAVLQSSGLYSLSSVVTVPSSSLGTQTYICNVNHKPSNTKVDKKVEPKSCSGGGGSGGGGSGGGGSEVQLLESGGGLVQPGGSLRLSCAVSGIDLSNYAINWVRQAPGKCLEWIGIIWASGTTFYATWAKGRFTISRDSTTVYLQMNSLRAEDTAVYYCARTVPGYSTAPYFDLWGQGTLVTVSS light: DIQMTQSPSSLSASVGDRVTITCRATQSIYNALAWYQQKPGKAPKLLIYNANTLHTGVPSRFSASGSGTDSTLTISSLQPEDFATYYCQQYYDYPLTFGGGTKVEIKRTVAAPSVFIFPPSDEQLKSGTASVVCLLNNFYPREAKVQWKVDNALQSGNSQESVTEQDSKDCTYSLSSTLTLSKADYEKHKVYACEVTHQGLSSPVTKSFNRGECSGGGGSGGGGSGGGGSDIVMTQSPSSVSASVGDRVTITCQSSPSVWSNFLSWYQQKPGKAPKLLIYEASKLTSGVPSRFKGSGSGTDFTLTISSLQPEDFATYYCGGGYSSISDTTFGCGTKVEIK |
